Reference: FireProtDB (doi:10.1021/bi011146t)
“And” between values parts separate entries of the source, which are not always exact repeats. Equal entries are not always repeated.

Details: Archaeoglobus fulgidus (strain ATCC 49558 / DSM 4304 / JCM 9628 / NBRC 100126 / VC-16), pH 7.5, CD, sodium phosphate 20 mM, reversible: no, whole UniProt chain shown

B1: wild type, O28558 (protein)
chain: MLDMPIDPVYYQLAEYFDSLPKFDQFSSAREYREAINRIYEERNRQLSQHERVERVEDRTIKGRNGDIRVRVYQQKPDSPVLVYYHGGGFVICSIESHDALCRRIARLSNSTVVSVDYRLAPEHKFPAAVYDCYDATKWVAENAEELRIDPSKIFVGGDSAGGNLAAAVSIMARDSGEDFIKHQILIYPVVNFVAPTPSLLEFGEGLWILDQKIMSWFSEQYFSREEDKFNPLASVIFADLENLPPALIITAEYDPLRDEGEVFGQMLRRAGVEASIVRYRGVLHGFINYYPVLKAARDAINQIAALLVFD
- denaturant m value (20 °C, Urea): 1.65 kcal/mol/M
- denaturant midpoint (higher = more stable) (20 °C, Urea): 7.1 M
- unfolding free energy (20 °C, Urea): 49 kJ/mol
- unfolding enthalpy (van 't Hoff) (Thermal): 430 kJ/mol and 400 kJ/mol and 380 kJ/mol
